Experimental data published in paper PMC2441799 (Nucleic Acids Research, 2008).

Molecular target: full-length JDP2 protein fused to the yeast GAL4 DNA-binding domain (GAL4-DBD-JDP2) (rat, UniProt Q78E65 1-163)
Test: two-hybrid

Chain of full-length JDP2 protein fused to the yeast GAL4 DNA-binding domain (GAL4-DBD-JDP2) (Q78E65 whole entry, the tested form may be a part): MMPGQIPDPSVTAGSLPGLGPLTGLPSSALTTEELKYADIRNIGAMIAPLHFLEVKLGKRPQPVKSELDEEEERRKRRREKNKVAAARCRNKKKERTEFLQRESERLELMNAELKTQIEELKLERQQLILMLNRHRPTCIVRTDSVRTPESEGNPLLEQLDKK

B1: wild-type CHOP10 (expression plasmid, in NIH3T3 cells) (natural protein)
chain: MAAESLPFSFGTLSSWELEAWYEDLQEVLSSDENGGTYVSPPGNEEEESKIFTTLDPASLAWLTEEEPEPAEVTSTSQSPHSPDSSQSSLAQEEEEEDQGRTRKRKQSGHSPARAGKQRMKEKEQENERKVAQLAEENERLKQEIERLTREVEATRRALIDRMVNLHQA
  fold potentiation of the 5 × UAS luciferase reporter (two-hybrid): 25 fold
